Reference: patent US20260266848A1, “COMPOSITIONS AND METHODS FOR DIAGNOSING AND TREATING DYSTONIA” (Duke University, priority 2023, published 2026)

B1: GART (protein, UniProt P22102 2-1010, looked up)
Trifunctional purine …: AARVLIIGSGGREHTLAWKLAQSHHVKQVLVAPGNAGTACSEKISNTAISISDHTALAQFCKEKKIEFVVVGPEAPLAAGIVGNLRSAGVQCFGPTAEAAQLESSKRFAKEFMDRHGIPTAQWKAFTKPEEACSFILSADFPALVVKASGLAAGKGVIVAKSKEEACKAVQEIMQEKAFGAAGETIVIEELLDGEEVSCLCFTDGKTVAPMPPAQDHKRLLEGDGGPNTGGMGAYCPAPQVSNDLLLKIKDTVLQRTVDGMQQEGTPYTGILYAGIMLTKNGPKVLEFNCRFGDPECQVILPLLKSDLYEVIQSTLDGLLCTSLPVWLENHTALTVVMASKGYPGDYTKGVEITGFPEAQALGLEVFHAGTALKNGKVVTHGGRVLAVTAIRENLISALEEAKKGLAAIKFEGAIYRKDVGFRAIAFLQQPRSLTYKESGVDIAAGNMLVKKIQPLAKATSRSGCKVDLGGFAGLFDLKAAGFKDPLLASGTDGVGTKLKIAQLCNKHDTIGQDLVAMCVNDILAQGAEPLFFLDYFSCGKLDLSVTEAVVAGIAKACGKAGCALLGGETAEMPDMYPPGEYDLAGFAVGAMERDQKLPHLERITEGDVVVGIASSGLHSNGFSLVRKIVAKSSLQYSSPAPDGCGDQTLGDLLLTPTRIYSHSLLPVLRSGHVKAFAHITGGGLLENIPRVLPEKLGVDLDAQTWRIPRVFSWLQQEGHLSEEEMARTFNCGVGAVLVVSKEQTEQILRDIQQHKEEAWVIGSVVARAEGSPRVKVKNLIESMQINGSVLKNGSLTNHFSFEKKKARVAVLISGTGSNLQALIDSTREPNSSAQIDIVISNKAAVAGLDKAERAGIPTRVINHKLYKNRVEFDSAIDLVLEEFSIDIVCLAGFMRILSGPFVQKWNGKMLNIHPSLLPSFKGSNAHEQALETGVTVTGCTVHFVAEDVDAGQIILQEAVPVKRGDTVATLSERVKLAEHKIFPAALQLVASGTVQLGENGKICWVKEE
B2: AP1B1 (protein, UniProt Q10567 1-949, looked up)
AP-1 complex subunit beta-1: MTDSKYFTTTKKGEIFELKAELNSDKKEKKKEAVKKVIASMTVGKDVSALFPDVVNCMQTDNLELKKLVYLYLMNYAKSQPDMAIMAVNTFVKDCEDPNPLIRALAVRTMGCIRVDKITEYLCEPLRKCLKDEDPYVRKTAAVCVAKLHDINAQLVEDQGFLDTLKDLISDSNPMVVANAVAALSEIAESHPSSNLLDLNPQSINKLLTALNECTEWGQIFILDCLANYMPKDDREAQSICERVTPRLSHANSAVVLSAVKVLMKFMEMLSKDLDYYGTLLKKLAPPLVTLLSAEPELQYVALRNINLIVQKRPEILKHEMKVFFVKYNDPIYVKLEKLDIMIRLASQANIAQVLAELKEYATEVDVDFVRKAVRAIGRCAIKVEQSAERCVSTLLDLIQTKVNYVVQEAIVVIKDIFRKYPNKYESVIATLCENLDSLDEPEARAAMIWIVGEYAERIDNADELLESFLEGFHDESTQVQLQLLTAIVKLFLKKPTETQELVQQVLSLATQDSDNPDLRDRGYIYWRLLSTDPVAAKEVVLAEKPLISEETDLIEPTLLDELICYIGTLASVYHKPPSAFVEGGRGVVHKSLPPRTASSESAESPETAPTGAPPGEQPDVIPAQGDLLGDLLNLDLGPPVSGPPLATSSVQMGAVDLLGGGLDSLMGDEPEGIGGTNFVAPPTAAVPANLGAPIGSGLSDLFDLTSGVGTLSGSYVAPKAVWLPAMKAKGLEISGTFTRQVGSISMDLQLTNKALQVMTDFAIQFNRNSFGLAPAAPLQVHAPLSPNQTVEISLPLSTVGSVMKMEPLNNLQVAVKNNIDVFYFSTLYPLHILFVEDGKMDRQMFLATWKDIPNENEAQFQIRDCPLNAEAASSKLQSSNIFTVAKRNVEGQDMLYQSLKLTNGIWVLAELRIQPGNPSCTDLELSLKCRAPEVSQHVYQAYETILKN
B3: Ap3d1 (protein, UniProt O54774 2-1199, looked up)
AP-3 complex subunit delta-1: ALKMVKGSIDRMFDKNLQDLVRGIRNHKEDEAKYISQCIDEIKQELKQDNIAVKANAVCKLTYLQMLGYDISWAAFNIIEVMSASKFTFKRVGYLAASQCFHEGTDVIMLTTNQIRKDLSSPSQYDTGVALTGLSCFVTPDLARDLANDIMTLMSHTKPYIRKKAVLIMYKVFLKYPESLRPAFPRLKEKLEDPDPGVQSAAVNVICELARRNPKNYLSLAPLFFKLMTSSTNNWVLIKIIKLFGALTPLEPRLGKKLIEPLTNLIHSTSAMSLLYECVNTVIAVLISLSSGMPNHSASIQLCVQKLRILIEDSDQNLKYLGLLAMSKILKTHPKSVQSHKDLILQCLDDKDESIRLRALDLLYGMVSKKNLMEIVKKLMTHVDKAEGTTYRDELLTKIIDICSQSNYQHITNFEWYISILVELTRLEGTRHGHLIAAQMLDVAIRVKAIRKFAVSQMSSLLDSAHLVASSTQRNGICEVLYAAAWICGEFSEHLQGPQQTLEAMLRPKVTTLPGHIQAVYVQNVVKLYASILQQKEQAADTEAAQEVTQLLVERLPQFVQSADLEVQERASCILQLVKHVQKLQAKGVPVAEEVSALFAGELNPVAPKAQKKVPVPEGLDLDAWINEPPSDSESEDEKPKAIFHEEEPRHTRRRQPEEDEEELARRREARKQEQANNPFYIKSSPSPQKRYQDAPGVEHIPVVQIDLSVPLKVPGMPMSDQYVKLEEQRRHRQRLEKDKKRKKKEKGKRRHSSLPTESDEDIAPAQRVDIITEEMPENALPSDEDDKDPNDPYRALDIDLDKPLADSEKLPVQKHRNAEAVKSPEKEGVLGVEKKSKKPKKKEKKTKEREREKKDKKGEDLDFWLSTTPPPAAAPIPAPSTEELAASTITSPKDECEVLKGEEEDHVDHDQERKSSRHKKKKHRKEKEKEERPRDKKKAKKKQVAPLENGAAAEEEEEPIPPMSSYCLLAESPYIKVTYDIQASLQKDSQVTVSIILENQSSSFLKNMELNVLDSLNTKMTRPEGSSVHDGVPVPFQLPPGVSNEAQFVFTIQSIVMAQKLKGTLSFIAKDDEGATHEKLDFRLHFSCSSYLITTPCYSDAFAKLLESGDLSMNSIKVDGISMSFQNLLAKICFYHHFSVVERVDSCASMYSRSIQGHHVCLLVKKGESSVSVDGKCSDATLLSSLLEEMKTTLAQC
B4: HNRNPC (protein, UniProt P07910 2-306, looked up)
Heterogeneous nuclear …: ASNVTNKTDPRSMNSRVFIGNLNTLVVKKSDVEAIFSKYGKIVGCSVHKGFAFVQYVNERNARAAVAGEDGRMIAGQVLDINLAAEPKVNRGKAGVKRSAAEMYGSVTEHPSPSPLLSSSFDLDYDFQRDYYDRMYSYPARVPPPPPIARAVVPSKRQRVSGNTSRRGKSGFNSKSGQRGSSKSGKLKGDDLQAIKKELTQIKQKVDSLLENLEKIEKEQSKQAVEMKNDKSEEEQSSSSVKKDETNVKMESEGGADDSAEEGDLLDDDDNEDRGDDQLELIKDDEKEAEEGEDDRDSANGEDDS
B5: ZYX (protein, UniProt Q15942 2-572, looked up)
Zyxin: AAPRPSPAISVSVSAPAFYAPQKKFGPVVAPKPKVNPFRPGDSEPPPAPGAQRAQMGRVGEIPPPPPEDFPLPPPPLAGDGDDAEGALGGAFPPPPPPIEESFPPAPLEEEIFPSPPPPPEEEGGPEAPIPPPPQPREKVSSIDLEIDSLSSLLDDMTKNDPFKARVSSGYVPPPVATPFSSKSSTKPAAGGTAPLPPWKSPSSSQPLPQVPAPAQSQTQFHVQPQPQPKPQVQLHVQSQTQPVSLANTQPRGPPASSPAPAPKFSPVTPKFTPVASKFSPGAPGGSGSQPNQKLGHPEALSAGTGSPQPPSFTYAQQREKPRVQEKQHPVPPPAQNQNQVRSPGAPGPLTLKEVEELEQLTQQLMQDMEHPQRQNVAVNELCGRCHQPLARAQPAVRALGQLFHIACFTCHQCAQQLQGQQFYSLEGAPYCEGCYTDTLEKCNTCGEPITDRMLRATGKAYHPHCFTCVVCARPLEGTSFIVDQANRPHCVPDYHKQYAPRCSVCSEPIMPEPGRDETVRVVALDKNFHMKCYKCEDCGKPLSIEADDNGCFPLDGHVLCRKCHTARAQT

Columns and labels:
[1] = system: DYT1 patient plasma derived EVs; assay: Plasma-derived EV proteomics (ExoQuick ULTRA, DIA LC/MS/MS), DYT1 vs Healthy Controls; parameters: species or system human; conditions: Hs. Plasma EVs (DYT1/WT); significance of genotype difference
Experimental: Data was obtained for extracellular vesicles using previously acquired samples. The ExoQuick® ULTRA EV Isolation System was used to fractionate and enrich EVs from plasma. Isolated plasma EV samples were then submitted to proteomic analysis by the Duke Proteomics and Metabolomics Core Facility (DPMCF). At the DPMCF, quantitative (LC/MS/MS) was performed on 500 ng of each sample, using an EvoSep One UPLC system coupled to a Thermo Orbitrap Astral high-resolution accurate mass tandem mass spectrometer (Thermo). Briefly, the sample was eluted directly from an Evotip which was subjected to a low organic wash and then subjected to an analytical separation using a 1.7 μm EvoSep 150 um ID×15 cm endurance (EveoSep) column running an SPD30 gradient from approximately 5 to 30% acetonitrile with 0.1% formic acid with a column temperature of 50 C. Data collection on the Orbitrap Astral mass spectrometer was performed in a data-independent acquisition (DIA) mode of acquisition with a r=240,000 (@m/z 200) full MS scan from m/z 380-980 with a target AGC value of 4e5 ions. Fixed DIA, windows of 4 m/z from m/z 380 to 980 DIA MS/MS scans were acquired in the Astral with a target AGC value of 5e4 and a max fill time of 6 ms. HCD collision energy setting of 27% was used for all MS2 scans.

[2] = system: DYT-TOR1A MEF EVs; assay: Quantitative LC-MS/MS proteomics of EVs from drug-treated DYT-TOR1A MEF cultures (ritonavir, salubrinal); format: cell-based, mouse; parameters: key to RTV Corrective Direction / RTV Corrective Direction, Grwd1 / RTV Corrective Direction, Srrm2 / RTV Corrective Direction, Rbm17 / RTV Corrective Direction, Dcaf8 / RTV Corrective Direction, Edil3 / RTV Corrective Direction, Timp3 / RTV Corrective Direction, Heatr3 / RTV Corrective Direction, Brd4 / RTV Corrective Direction, P3h4 / RTV Corrective Direction, Pacsin3 / RTV Corrective Direction, Naa50 / RTV Corrective Direction, Lpar6 / RTV Corrective Direction, Ndrg1 / RTV Corrective Direction, Kntc1 / RTV Corrective Direction, Cdk11b / RTV Corrective Direction, Sumo1 / RTV Corrective Direction, Lsm4 / RTV Corrective Direction, Hmga2 / RTV Corrective Direction, Cstf1 / RTV Corrective Direction, Tes / RTV Corrective Direction, Sbno1 / RTV Corrective Direction, Unc119b / RTV Corrective Direction, Cfdp1 / RTV Corrective Direction, Sec61b: YES = protein abundance effect opposite to DYT/WT; conditions: EV protein abundance
[3] = system: WT MEF EVs; assay: Quantitative LC-MS/MS proteomics of EVs from ISRIB-treated WT MEF cultures; format: cell-based, mouse; parameters: key to ISRIB and DYT Parallel Direction / ISRIB and DYT Parallel Direction, Ctdsp1 / ISRIB and DYT Parallel Direction, Pcdh19 / ISRIB and DYT Parallel Direction, Tspan7 / ISRIB and DYT Parallel Direction, Myo1e / ISRIB and DYT Parallel Direction, Plpp3 / ISRIB and DYT Parallel Direction, Sh3bp4 / ISRIB and DYT Parallel Direction, Dnajc7 / ISRIB and DYT Parallel Direction, Drg1 / ISRIB and DYT Parallel Direction, Maea: YES = protein abundance effect similar to DYT/WT; conditions: EV protein abundance

Molecule	-LogP [1]	further results
B1	1.317	
B2	2.413	
B3		RTV Corrective Direction ([2]; DYT + RTV (ritonavir) vs DYT, direction compared with DYT/WT): YES; DYT + RTV/DYT Cohen's d ([2]; ritonavir (RTV)-treated DYT vs DYT): 3.27; WT + ISRIB/WT Cohen's d ([3]; ISRIB-treated WT vs WT): −0.19; ISRIB and DYT Parallel Direction ([3]; WT + ISRIB vs WT, direction compared with DYT/WT): YES
B4	2.933	
B5	2.225	
